Where no end group is shown, it is not given here. [ ]: non-standard residue; d: D form. Abu = CC[C@H](N)C(=O)O
B1: HER2/neu DR supermotif exemplary peptide PSTFKGTPTAENPEY (position 1234) (peptide)
peptide: PSTFKGTPTAENPEY
notes: synthetic 15-mer; also called Her2/neu.1234
B2: HER2/neu DR supermotif exemplary peptide QGFFCPDPAPGAGGM (position 1028) (peptide)
peptide: QGFFCPDPAPGAGGM
notes: synthetic 15-mer; also called Her2/neu.1028

Target: T1, HLA-A*0201 (human)
T1 construct: also called HLA-A2.1
Assay: competition with 125I probe peptide for purified HLA

IC50 [nM] | Binder
16700 | AT[Abu]RWGLLV [Her2/neu.5.T2B3V9 ATBRWGLLV]
10000 | AV[Abu]RWGLLV [Her2/neu.5V2B3V9 AVBRWGLLV]
36 | AM[Abu]RWGLLV [Her2/neu.5M2B3V9 AMBRWGLLV]

Target: HLA-A*0202 (human)
Assay: as above

IC50 [nM] | Binder
215 | AT[Abu]RWGLLV [Her2/neu.5.T2B3V9 ATBRWGLLV]
215 | AV[Abu]RWGLLV [Her2/neu.5V2B3V9 AVBRWGLLV]
473 | AM[Abu]RWGLLV [Her2/neu.5M2B3V9 AMBRWGLLV]

Target: HLA-A*0203 (human)
Assay: as above

IC50 [nM] | Binder
141 | AV[Abu]RWGLLV [Her2/neu.5V2B3V9 AVBRWGLLV]
16 | AM[Abu]RWGLLV [Her2/neu.5M2B3V9 AMBRWGLLV]

Target: HLA-A*0206 (human)
Assay: as above

IC50 [nM] | Binder
2180 | AT[Abu]RWGLLV [Her2/neu.5.T2B3V9 ATBRWGLLV]
2180 | AV[Abu]RWGLLV [Her2/neu.5V2B3V9 AVBRWGLLV]
726 | AM[Abu]RWGLLV [Her2/neu.5M2B3V9 AMBRWGLLV]

Target: HLA-A*6802 (human)
Assay: as above

IC50 [nM] | Binder
1740 | AT[Abu]RWGLLV [Her2/neu.5.T2B3V9 ATBRWGLLV]
4710 | AV[Abu]RWGLLV [Her2/neu.5V2B3V9 AVBRWGLLV]

Target: HLA-DR1 (DRB1*0101), purified HLA class II molecule (human)
Assay: competition with 125I-labelled probe peptide, purified HLA-DR

relative binding ratio | Binder
-0.0004 ratio (IC50 standard / IC50 test) | VCPLHNQEVTAEDGT (also called Her2/neu.314) [HER2/neu DR supermotif exemplary 15-mer VCPLHNQEVTAEDGT (position 314)]
-0.0004 ratio (IC50 standard / IC50 test) | VVGILLVVVLGVVFG (also called Her2/neu.658) [HER2/neu DR supermotif exemplary 15-mer VVGILLVVVLGVVFG (position 658)]
0.053 ratio (IC50 standard / IC50 test) | TQLFEDNYALAVLDN (also called Her2/neu.105) [HER2/neu DR supermotif exemplary 15-mer TQLFEDNYALAVLDN (position 105)]
-0.0008 ratio (IC50 standard / IC50 test) | VEPLTPSGAMPNQAQ (also called Her2/neu.697) [HER2/neu DR supermotif exemplary 15-mer VEPLTPSGAMPNQAQ (position 697)]

Target: HLA-DR3 (DRB1*0301), purified HLA class II molecule (human)
Assay: as above

relative binding ratio | Binder
0.008 ratio (IC50 standard / IC50 test) | RSLLEDDDMGDLVDA (also called Her2/neu.1006) [HER2/neu DR supermotif exemplary 15-mer RSLLEDDDMGDLVDA (position 1006)]
0.0023 ratio (IC50 standard / IC50 test) | TAPLQPEQLQVFETL (also called Her2/neu.389) [HER2/neu DR supermotif exemplary 15-mer TAPLQPEQLQVFETL (position 389)]
0.022 ratio (IC50 standard / IC50 test) | VHTVPWDQLFRNPHQ (also called Her2/neu.477) [HER2/neu DR supermotif exemplary 15-mer VHTVPWDQLFRNPHQ (position 477)]

Target: HLA-DR4w4 (DRB1*0401), purified HLA class II molecule (human)
Assay: as above

relative binding ratio | Binder
-0.0025 ratio (IC50 standard / IC50 test) | VCPLHNQEVTAEDGT (also called Her2/neu.314) [HER2/neu DR supermotif exemplary 15-mer VCPLHNQEVTAEDGT (position 314)]
-0.0025 ratio (IC50 standard / IC50 test) | VVGILLVVVLGVVFG (also called Her2/neu.658) [HER2/neu DR supermotif exemplary 15-mer VVGILLVVVLGVVFG (position 658)]
-0.0025 ratio (IC50 standard / IC50 test) | TQLFEDNYALAVLDN (also called Her2/neu.105) [HER2/neu DR supermotif exemplary 15-mer TQLFEDNYALAVLDN (position 105)]
-0.0025 ratio (IC50 standard / IC50 test) | VEPLTPSGAMPNQAQ (also called Her2/neu.697) [HER2/neu DR supermotif exemplary 15-mer VEPLTPSGAMPNQAQ (position 697)]

Target: HLA-DR7 (DRB1*0701), purified HLA class II molecule (human)
Assay: as above

relative binding ratio | Binder
-0.0013 ratio (IC50 standard / IC50 test) | VCPLHNQEVTAEDGT (also called Her2/neu.314) [HER2/neu DR supermotif exemplary 15-mer VCPLHNQEVTAEDGT (position 314)]
-0.0013 ratio (IC50 standard / IC50 test) | VVGILLVVVLGVVFG (also called Her2/neu.658) [HER2/neu DR supermotif exemplary 15-mer VVGILLVVVLGVVFG (position 658)]
0.016 ratio (IC50 standard / IC50 test) | TQLFEDNYALAVLDN (also called Her2/neu.105) [HER2/neu DR supermotif exemplary 15-mer TQLFEDNYALAVLDN (position 105)]
-0.0011 ratio (IC50 standard / IC50 test) | VEPLTPSGAMPNQAQ (also called Her2/neu.697) [HER2/neu DR supermotif exemplary 15-mer VEPLTPSGAMPNQAQ (position 697)]

Target: T2, HLA-A*0201 (human)
T2 construct: also called HLA-A2.1
Assay: competition with 125I-labelled probe peptide for purified HLA, gel filtration

IC50 [nM] | Binder
55 | VLIQRNPQV [Her2/neu.153V9]
35 | KTFGSLAFV [Her2/neu.369T2V9]
7.2 | YLIMVK[Abu]WMV (also called YLIMVKBWMV) [Her2/neu.952L2B7V10]
7.1 | SLISAVVGV [Her2/neu.653.L2V9]
13 | YLIMVKCWMV [Her2/neu.952L2V10]

Target: HLA-A*0202 (human)
Assay: as above

IC50 [nM] | Binder
768 | VLIQRNPQV [Her2/neu.153V9]
13 | KTFGSLAFV [Her2/neu.369T2V9]
66 | YLIMVK[Abu]WMV (also called YLIMVKBWMV) [Her2/neu.952L2B7V10]
10 | SLISAVVGV [Her2/neu.653.L2V9]
56 | YLIMVKCWMV [Her2/neu.952L2V10]

Target: HLA-A*0203 (human)
Assay: as above

IC50 [nM] | Binder
135 | VLIQRNPQV [Her2/neu.153V9]
1010 | KTFGSLAFV [Her2/neu.369T2V9]
77 | YLIMVK[Abu]WMV (also called YLIMVKBWMV) [Her2/neu.952L2B7V10]
16 | SLISAVVGV [Her2/neu.653.L2V9]

Target: HLA-A*0206 (human)
Assay: as above

IC50 [nM] | Binder
385 | VLIQRNPQV [Her2/neu.153V9]
11 | YLIMVK[Abu]WMV (also called YLIMVKBWMV) [Her2/neu.952L2B7V10]
20 | SLISAVVGV [Her2/neu.653.L2V9]
18 | YLIMVKCWMV [Her2/neu.952L2V10]

Target: HLA-A*6802 (human)
Assay: as above

IC50 [nM] | Binder
17 | KTFGSLAFV [Her2/neu.369T2V9]
851 | YLIMVK[Abu]WMV (also called YLIMVKBWMV) [Her2/neu.952L2B7V10]
110 | SLISAVVGV [Her2/neu.653.L2V9]
84 | YLIMVKCWMV [Her2/neu.952L2V10]

Target: T3, HLA-DRB1*0101 (human)
T3 construct: also called DR1
Assay: competition with 125I-labeled standard peptide, purified HLA-DR, gel filtration

relative binding ratio | Binder
-0.0005 ratio (standard IC50 / test IC50) | B1
-0.0005 ratio (standard IC50 / test IC50) | B2

Target: T4, HLA-DRB1*0401 (human)
T4 construct: also called DR4w4
Assay: as above

relative binding ratio | Binder
-0.0032 ratio (standard IC50 / test IC50) | B1
0.023 ratio (standard IC50 / test IC50) | B2

Target: T5, HLA-DRB1*0701 (human)
T5 construct: also called DR7
Assay: as above

relative binding ratio | Binder
-0.0011 ratio (standard IC50 / test IC50) | B1
-0.0011 ratio (standard IC50 / test IC50) | B2

Source: patent publication US20040018971A1 (published 2004)
